Measured values from patent US20250289897A1, “LEPTIN RECEPTOR AGONISTIC ANTIBODY AS MONO OR COMBO THERAPIES TO TREAT OBESITY” (ELI LILLY AND COMPANY, priority 2024, published 2025).

Target: T1, rat-LEPR (Rattus norvegicus, UniProt Q62959)
T1 construct: introducing DNA plasmids encoding full-length LEPR of different species and STAT3-luciferase reporter gene into HEK293 cells; expressed in transfected cells; host or cells: HEK293 (HEK293-STAT3Luc-ratLepR3)
T1 sequence (Q62959 22-1162): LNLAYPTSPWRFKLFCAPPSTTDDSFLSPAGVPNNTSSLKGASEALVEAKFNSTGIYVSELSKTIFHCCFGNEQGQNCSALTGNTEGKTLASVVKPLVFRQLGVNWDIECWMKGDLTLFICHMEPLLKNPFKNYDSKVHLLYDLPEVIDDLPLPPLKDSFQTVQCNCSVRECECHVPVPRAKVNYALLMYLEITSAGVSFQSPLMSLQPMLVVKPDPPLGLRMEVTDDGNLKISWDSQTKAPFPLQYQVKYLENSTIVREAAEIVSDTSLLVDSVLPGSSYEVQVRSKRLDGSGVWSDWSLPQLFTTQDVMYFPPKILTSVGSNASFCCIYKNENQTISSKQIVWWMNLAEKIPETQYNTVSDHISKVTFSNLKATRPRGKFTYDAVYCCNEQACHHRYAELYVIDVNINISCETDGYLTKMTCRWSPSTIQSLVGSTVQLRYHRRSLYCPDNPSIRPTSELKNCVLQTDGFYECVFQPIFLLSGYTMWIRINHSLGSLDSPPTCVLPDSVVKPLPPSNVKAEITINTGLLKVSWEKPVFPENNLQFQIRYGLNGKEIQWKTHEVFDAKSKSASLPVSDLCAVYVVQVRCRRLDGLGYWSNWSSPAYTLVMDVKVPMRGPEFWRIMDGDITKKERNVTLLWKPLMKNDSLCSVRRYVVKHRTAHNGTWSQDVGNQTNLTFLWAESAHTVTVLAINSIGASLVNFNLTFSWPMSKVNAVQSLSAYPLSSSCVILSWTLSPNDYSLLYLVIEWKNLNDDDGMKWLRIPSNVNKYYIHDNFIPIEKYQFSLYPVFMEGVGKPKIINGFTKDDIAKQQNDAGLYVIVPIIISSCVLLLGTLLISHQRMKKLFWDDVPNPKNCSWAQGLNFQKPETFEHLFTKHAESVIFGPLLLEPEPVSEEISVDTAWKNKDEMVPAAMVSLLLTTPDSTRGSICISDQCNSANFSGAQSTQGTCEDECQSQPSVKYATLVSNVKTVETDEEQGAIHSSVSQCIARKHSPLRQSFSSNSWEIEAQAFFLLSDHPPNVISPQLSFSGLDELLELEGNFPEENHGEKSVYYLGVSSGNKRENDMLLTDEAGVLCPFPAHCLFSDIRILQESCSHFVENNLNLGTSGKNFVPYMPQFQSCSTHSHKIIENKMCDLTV
Experiment: STAT3-luciferase reporter assay in HEK293-STAT3Luc-ratLepR3 cells
Assay type: cell-based
From the text: LEPR is a cell surface single-pass transmembrane receptor. Activation of LEPR leads to phosphorylation of intracellular STAT3 (pSTAT3) and subsequent target gene transcription. To measure LEPR activation by anti-LEPR antibodies in the present disclosure, five independent STAT-luciferase reporter cell lines were established by introducing DNA plasmids encoding full-length LEPR of different species and STAT3-luciferase reporter gene into HEK293 cells (Table 4). […]
Before plating the cells for luciferase assays, the poly-D-Lysine coated 96-well plates (Corning Inc, #354651) were rinsed once with phosphate buffered solution (PBS). […] Cell lysing and One-Glo luciferase substrate solution (Promega, #E6120) were then added to each well, and relative luciferase units (RLUs) were measured on a ClarioStar plate reader. For each reporter cell line, positive control LEPR activation was calculated as the average RLUs stimulated by 20 nM recombinant human leptin protein (SEQ ID NO:27) minus the average RLUs of unstimulated cells and was set as maximum LEPR activation (100%). […]

- EC50 (antibodies at concentrations up to 90 nM, read-out: EC50 (nM) ± SEM): 6.29 ± 0.62 nM
- Agonism (%) ± SEM (vs 20 nM recombinant human leptin, antibodies up to 90 nM): 106.1%
Substance: human leptin: recombinant human leptin protein (SEQ ID NO:27), positive control
